Assay results as given in article doi:10.1101/2025.08.01.667454 (bioRxiv, 2025).

B1: PU.1[1–117] (domain or fragment, human, UniProt P17947 1-117, looked up)
chain: MLQACKMEGFPLVPPPSEDLVPYDTDLYQRQTHEYYPYLSSDGESHSDHYWDFHPHHVHSEFESFAENNFTELQSVQPPQLQQLYRHMELEQMHVLDTPMVPPHPSLGHQVSYLPRM
B2: BAF60A^YLD+SWIB (BAF60A residues 144-407) (domain or fragment, human, UniProt Q96GM5 144-407, looked up)
chain: SQAYMDLLAFERKLDQTIMRKRLDIQEALKRPIKQKRKLRIFISNTFNPAKSDAEDGEGTVASWELRVEGRLLEDSALSKYDATKQKRKFSSFFKSLVIELDKDLYGPDNHLVEWHRTATTQETDGFQVKRPGDVNVRCTVLLMLDYQPPQFKLDPRLARLLGIHTQTRPVIIQALWQYIKTHKLQDPHEREFVICDKYLQQIFESQRMKFSEIPQRLHALLMPPEPIIINHVISVDPNDQKKTACYDIDVEVDDTLKTQMNSF

Legend:
[1] = target: B2; assay: ITC
[2] = target: MBP-tagged full-length PU.1 (human, UniProt P17947 1-270); assay: ITC
PU.1[61–270] = PU.1[61–270] (human, UniProt P17947 61-270); assay: ITC
PU.1^FL S75A = PU.1^FL S75A (human, UniProt P17947 1-270, S75A); assay: fluorescence polarisation
[3] = target: B2; assay: fluorescence polarisation
[4] = target: B2; assay: fluorescence polarisation; remark: listed apart in the source

Binder: B1
- Kd [1]: 2800 nM

Binder: B2
- Kd [2]: 1260 nM
- stoichiometry N [2]: 1
- Kd (PU.1[61–270]): 3230 nM
- binding result (PU.1^FL S75A): binds

Binder: SEFESFAENNFTELQSVQPPQLQQLYRHMELEQMHVLDTPM (peptide, UniProt P17947 60-100, looked up) [PU.1[60–100]]
- Kd [1]: 1250 nM

Binder: CEFESFAENNFTELQSVQPPQLQQLYRHMELEQMHVLDTPM (peptide, UniProt P17947 60-100, looked up, BODIPY TMR C5 maleimide on the cysteine introduced at position 60) [PU.1[60–100]^TMR]
- Kd [3]: 920 nM

Binder: CEFESFAENNFTELQSVQPPQLQQLYRHMELEQMHVLDTPM (peptide, UniProt P17947 60-100, looked up) [PU.1^60C-100]
- binding result [4]: binds

Binder: FTELQSVQPPQLQQLYRHMELEQMHVLDTPM (peptide, UniProt P17947 70-100, looked up) [PU.1[70–100]]
- Kd [1]: 2570 nM
- IC50 [4]: 2370 nM
